# Results as given in the supplement of paper PMC5998384.
# Columns and labels:
# [1] = tested on: HeLa Kyoto; assay: thermal stability score vs G1/S (z-score of summed log2 fold changes over temperatures); higher = more thermally stable than in G1/S
# [2] = tested on: HeLa Kyoto; assay: melting temperature (median over replicates), in situ; higher = more thermally stable
# [3] = tested on: HeLa Kyoto; assay: solubility change mitosis vs G1/S (difference of NP-40 vs SDS log2 ratios) (log2 ratio difference); higher = more soluble in mitosis
# [4] = tested on: HeLa Kyoto; assay: solubility in G1/S (NP-40 vs SDS abundance) (log2 ratio); higher = more soluble; settings: cell cycle stage: G1/S
# [5] = cell cycle stage: early G1 (4.5 h after nocodazole release)
# 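For melting temperature (median over replicates), in situ in this document: HeLa Kyoto cells synchronized by double thymidine or nocodazole block, proteins quantified by TMT10plex mass spectrometry, three independent biological replicates.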
# 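For solubility change mitosis vs G1/S (difference of NP-40 vs SDS log2 ratios) in this document: synchronized HeLa Kyoto cells (double thymidine block for G1/S, nocodazole release for mitosis), protein amounts in NP-40 versus SDS lysates quantified by mass spectrometry, three biological replicates.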
# 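For solubility in G1/S (NP-40 vs SDS abundance) in this document: HeLa Kyoto cells arrested at G1/S by double thymidine block, proteins quantified by TMT10plex mass spectrometry in mild NP-40 versus SDS extracts, three biological replicates.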
# 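For thermal stability score vs G1/S (z-score of summed log2 fold changes over temperatures) in this document: synchronized HeLa Kyoto cells, proteins quantified by TMT10plex mass spectrometry, three biological replicates, mitosis taken 0.5 h after nocodazole release, G1/S directly after double thymidine block.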
# Sequence of NARFL (chain, as listed by the source): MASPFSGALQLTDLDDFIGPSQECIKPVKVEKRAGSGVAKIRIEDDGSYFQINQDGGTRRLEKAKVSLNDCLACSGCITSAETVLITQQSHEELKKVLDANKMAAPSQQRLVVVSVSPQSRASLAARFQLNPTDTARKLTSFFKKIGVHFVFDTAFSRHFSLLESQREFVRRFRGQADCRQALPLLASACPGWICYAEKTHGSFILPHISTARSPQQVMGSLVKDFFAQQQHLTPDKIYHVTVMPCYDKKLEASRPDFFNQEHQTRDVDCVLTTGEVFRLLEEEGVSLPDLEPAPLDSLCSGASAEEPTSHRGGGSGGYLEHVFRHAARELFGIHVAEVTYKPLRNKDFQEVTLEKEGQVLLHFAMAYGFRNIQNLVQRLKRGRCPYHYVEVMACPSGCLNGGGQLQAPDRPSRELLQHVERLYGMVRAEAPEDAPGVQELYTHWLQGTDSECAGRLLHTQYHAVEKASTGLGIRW
Substance,"thermal stability score [1, 5]",thermal stability score ([1]; cell cycle stage: mitosis),melting temperature ([2]; cell cycle stage: G1/S),melting temperature ([2]; cell cycle stage: mitosis),solubility change mitosis (log2) [3],solubility in G1/S (log2) [4]
MAEGEDVPPLPTSSGDGWEKDLEEALEAGGCDLETLRNIIQGRPLPADLRAKVWKIALNVAGKGDSLASWDGILDLPEQNTIHKDCLQFIDQLSVPEEKAAELLLDIESVITFYCKSRNIKYSTSLSWIHLLKPLVHLQLPRSDLYNCFYAIMNKYIPRDCSQKGRPFHLFRLLIQYHEPELCSYLDTKKITPDSYALNWLGSLFACYCSTEVTQAIWDGYLQQADPFFIYFLMLIILVNAKEVILTQESDSKEEVIKFLENTPSSLNIEDIEDLFSLAQYYCSKTPASFRKDNHHLFGSTLLGIKDDDADLSQALCLAISVSEILQANQLQGEGVRFFVVDCRPAEQYNAGHLSTAFHLDSDLMLQNPSEFAQSVKSLLEAQKQSIESGSIAGGEHLCFMGSGREEEDMYMNMVLAHFLQKNKEYVSIASGGFMALQQHLADINVDGPENGYGHWIASTSGSRSSINSVDGESPNGSSDRGMKSLVNKMTVALKTKSVNVREKVISFIENTSTPVDRMSFNLPWPDRSCTERHVSSSDRVGKPYRGVKPVFSIGDEEEYDTDEIDSSSMSDDDRKEVVNIQTWINKPDVKHHFPCKEVKESGHMFPSHLLVTATHMYCLREIVSRKGLAYIQSRQALNSVVKITSKKKHPELITFKYGNSSASGIEILAIERYLIPNAGDATKAIKQQIMKVLDALES [TBC1D23],0.43,0.147,50.5 °C,50 °C,0.0232,0.0926
MTILTYPFKNLPTASKWALRFSIRPLSCSSQLRAAPAVQTKTKKTLAKPNIRNVVVVDGVRTPFLLSGTSYKDLMPHDLARAALTGLLHRTSVPKEVVDYIIFGTVIQEVKTSNVAREAALGAGFSDKTPAHTVTMACISANQAMTTGVGLIASGQCDVIVAGGVELMSDVPIRHSRKMRKLMLDLNKAKSMGQRLSLISKFRFNFLAPELPAVSEFSTSETMGHSADRLAAAFAVSRLEQDEYALRSHSLAKKAQDEGLLSDVVPFKVPGKDTVTKDNGIRPSSLEQMAKLKPAFIKPYGTVTAANSSFLTDGASAMLIMAEEKALAMGYKPKAYLRDFMYVSQDPKDQLLLGPTYATPKVLEKAGLTMNDIDAFEFHEAFSGQILANFKAMDSDWFAENYMGRKTKVGLPPLEKFNNWGGSLSLGHPFGATGCRLVMAAANRLRKEGGQYGLVAACAAGGQGHAMIVEAYPK [HADHB],-0.727,-0.0884,50.7 °C,50.7 °C,-0.0395,0.274
MAAATGDPGLSKLQFAPFSSALDVGFWHELTQKKLNEYRLDEAPKDIKGYYYNGDSAGLPARLTLEFSAFDMSAPTPARCCPAIGTLYNTNTLESFKTADKKLLLEQAANEIWESIKSGTALENPVLLNKFLLLTFADLKKYHFYYWFCYPALCLPESLPLIQGPVGLDQRFSLKQIEALECAYDNLCQTEGVTALPYFLIKYDENMVLVSLLKHYSDFFQGQRTKITIGVYDPCNLAQYPGWPLRNFLVLAAHRWSSSFQSVEVVCFRDRTMQGARDVAHSIIFEVKLPEMAFSPDCPKAVGWEKNQKGGMGPRMVNLSECMDPKRLAESSVDLNLKLMCWRLVPTLDLDKVVSVKCLLLGAGTLGCNVARTLMGWGVRHITFVDNAKISYSNPVRQPLYEFEDCLGGGKPKALAAADRLQKIFPGVNARGFNMSIPMPGHPVNFSSVTLEQARRDVEQLEQLIESHDVVFLLMDTRESRWLPAVIAASKRKLVINAALGFDTFVVMRHGLKKPKQQGAGDLCPNHPVASADLLGSSLFANIPGYKLGCYFCNDVVAPGDSTRDRTLDQQCTVSRPGLAVIAGALAVELMVSVLQHPEGGYAIASSSDDRMNEPPTSLGLVPHQIRGFLSRFDNVLPVSLAFDKCTACSSKVLDQYEREGFNFLAKVFNSSHSFLEDLTGLTLLHQETQAAEIWDMSDDETI [ATG7],-0.14,0.0236,51.3 °C,51.5 °C,-0.0691,-0.177
NARFL,0.41,0.802,54.2 °C,53.8 °C,-0.0938,0.0811
MAGRRVNVNVGVLGHIDSGKTALARALSTTASTAAFDKQPQSRERGITLDLGFSCFSVPLPARLRSSLPEFQAAPEAEPEPGEPLLQVTLVDCPGHASLIRTIIGGAQIIDLMMLVIDVTKGMQTQSAECLVIGQIACQKLVVVLNKIDLLPEGKRQAAIDKMTKKMQKTLENTKFRGAPIIPVAAKPGGPEAPETEAPQGIPELIELLTSQISIPTRDPSGPFLMSVDHCFSIKGQGTVMTGTILSGSISLGDSVEIPALKVVKKVKSMQMFHMPITSAMQGDRLGICVTQFDPKLLERGLVCAPESLHTVHAALISVEKIPYFRGPLQTKAKFHITVGHETVMGRLMFFSPAPDNFDQEPILDSFNFSQEYLFQEQYLSKDLTPAVTDNDEADKKAGQATEGHCPRQQWALVEFEKPVTCPRLCLVIGSRLDADIHTNTCRLAFHGILLHGLEDRNYADSFLPRLKVYKLKHKHGLVERAMDDYSVIGRSLFKKETNIQLFVGLKVHLSTGELGIIDSAFGQSGKFKIHIPGGLSPESKKILTPALKKRARAGRGEATRQEESAERSEPSQHVVLSLTFKRYVFDTHKRMVQSP [EEFSEC],2.19,3.12,49.3 °C,51.2 °C,0.119,-0.248
